Laboratory results as given in publication PMC8318291, “CryoEM structure of the Nipah virus nucleocapsid assembly” (PLoS Pathogens, 2021).
Several values for one entry are separate records, joined by “and”; a condition that tells them apart may be missing. Identical values can stand only once.

Biological target: the molecule itself
Experiment: cryo-EM structure

B1: Nipah virus (NiV) nucleocapsid protein (natural protein)
chain: MSDIFEEAASFRSYQSKLGRDGRASAATATLTTKIRIFVPATNSPELRWELTLFALDVIRSPSAAESMKVGAAFTLISMYSERPGALIRSLLNDPDIEAVIIDVGSMVNGIPVMERRGDKAQEEMEGLMRILKTARDSSKGKTPFVDSRAYGLRITDMSTLVSAVITIEAQIWILIAKAVTAPDTAEESETRRWAKYVQQKRVNPFFALTQQWLTEMRNLLSQSLSVRKFMVEILIEVKKGGSAKGRAVEIISDIGNYVEETGMAGFFATIRFGLETRYPALALNEFQSDLNTIKSLMLLYREIGPRAPYMVLLEESIQTKFAPGGYPLLWSFAMGVATTIDRSMGALNINRGYLEPMYFRLGQKSARHHAGGIDQNMANRLGLSSDQVAELAAAVQETSAGRQESNVQAREAKFAAGGVLIGGSDQDIDEGEEPIEQSGRQSVTFKREMSISSLANSVPSSSVSTSGGTRLTNSLLNLRSRLAAKAAKEAASSNATDDPAISNRTQGESEKKNNQDLKPAQNDLDFVRADV
notes: also called N protein; nucleoprotein (N)
How did the “stoichiometry N” value turn out when B1 was run?
The value was 13 subunits and 14 subunits.
